Experimental data published in patent US20190292247A1 (DEGENRX B V, published 2019).

Tests used:
[1] = molecular target: T1, amyloid beta 1-42 oligomer (UniProt P05067 672-713); assay: ELISA on immobilized oligomer (5 µg/ml), anti-FLAG-M2-HRP detection; ng/ml, as measured in the ELISA
T1 construct: domain: amyloid beta 1-42; Soluble oligomeric aggregate; also called Aβ-oligomers; oligomeric amyloid beta 1-42
Procedure: To probe the binding affinities of CBB-VNAR towards different amyloid beta species and aggregation states, ELISA assays were performed. As a comparator antibody, the well-characterized 6E10 antibody was used. The 6E10 antibody recognizes N-terminal amino acid residues 3-8 of amyloid beta (EFRHDS), an epitope that is present and available for antibody binding in amyloid beta 1-42 derived antigens regardless of the physical form or aggregation state (Crisostomo et al., 2015. Data Brief. 2015 Aug. 6; 4:650-8.; Frenzel et al., 2014. PLoS One. 2014 Mar. 3; 9(3):e89490). Amyloid beta aggregates were prepared by incubation of monomeric synthetic amyloid beta 1-42 monomer in either F-12 medium (for oligomers) or 10 mM HCl (for fibrils) essentially as described by Dahlgren et al. (2002. J Biol Chem. 2002 Aug. 30; 277(35):32046-53). Amyloid beta derived antigens in different forms (oligomer, monomer, fibril, all at 5 μg/ml) were immobilized to Nunc Amino Immobilizer plates and blocked with ethanolamine according to the manufacturer's instructions. After washing, plates were probed with different concentrations of either FLAG-tagged CBB-VNAR or biotinylated 6E10 antibody (in parallel and on the same plates) for 1 hour. Bound antibody was then detected using anti-FLAG-M2-HRP (for CBB-VNAR) or with streptavidin-HRP (for 6E10-biotin). […]

[2] = molecular target: T1, amyloid beta 1-42 oligomer; assay: intrinsic Trp fluorescence titration, 0.5 uM CBB-VNAR in PBS pH 7.2 with 0.5 mM EDTA, excitation 280 nm
Description: The amino acid residue tryptophan (Trp or W) intrinsically fluoresces upon excitation in the range 280-295 nm. The emission intensity (i.e. quantum yield) and emission wavelength are sensitive towards the local environment of the Trp residue. The local environment can change, for example, when the Trp residue is involved in conformational changes or ligand binding. Therefore, Trp emission is widely used to study proteins and their interaction with other proteins or small molecules. […] To evaluate whether the Trp residues of CBB-VNAR are involved in the binding of amyloid beta oligomer antigen, a fluorescence titration study was performed. For this experiment, 0.5 uM CBB-VNAR or 12Y2 control VNAR were titrated with known quantities of amyloid beta oligomer (ABO) in Phosphate Buffered Saline (PBS) buffer, pH 7.2. […] After each ABO addition, the sample was equilibrated until the Trp fluorescence intensity was stable, and Trp emission spectra were recorded between 320 and 450 nm using 280 nm excitation. […] Upon addition of ABO, the emission intensity of CBB-VNAR decreases in a dose-dependent and saturable fashion where the intensity decreases to about 70% of the intensity measured for the native protein (FIGS. 5A and C). […]

[3] = molecular target: T1, amyloid beta 1-42 oligomer; assay: intrinsic Trp fluorescence quenching; the varied concentration is that of the oligomer (ABO), with CBB-VNAR fixed at 0.5 uM
Description: Therefore, Trp emission is widely used to study proteins and their interaction with other proteins or small molecules. The invariable core structure of the VNAR as isolated from wobbegong sharks has two Trp residues (see sequence below, Trp indicated in black) of which one is buried inside the protein whereas the other is exposed to the solvent (see FIG. 5D). The CBB-VNAR has two additional Trp residues in the CDR regions (one in CDR1, one in CDR3). No Trp residues are present in the CDR regions of the 12Y2 control protein. Apart from the CDR sequences, this control 12Y2 protein has an amino acid sequence identical to that of CBB-VNAR. To evaluate whether the Trp residues of CBB-VNAR are involved in the binding of amyloid beta oligomer antigen, a fluorescence titration study was performed. For this experiment, 0.5 uM CBB-VNAR or 12Y2 control VNAR were titrated with known quantities of amyloid beta oligomer (ABO) in Phosphate Buffered Saline (PBS) buffer, pH 7.2. […] After each ABO addition, the sample was equilibrated until the Trp fluorescence intensity was stable, and Trp emission spectra were recorded between 320 and 450 nm using 280 nm excitation. […] Upon addition of ABO, the emission intensity of CBB-VNAR decreases in a dose-dependent and saturable fashion where the intensity decreases to about 70% of the intensity measured for the native protein (FIGS. 5A and C). […]

[4] = molecular target: T2, Stable Crossbeta oligomers (Perkin Elmer Amyloid Oligomers AlphaLISA High-Specificity Detection Kit (AL334F)) (UniProt P05067 672-713); assay: sandwich ELISA: CBB-VNAR coated at 2 µg/ml as capture, the stable oligomer concentration is varied, detection with 6E10-biotin and streptavidin-HRP; sandwich ELISA; CBB-VNAR coated 2 µg/ml as capture; stable Crossbeta oligomer titrated
T2 construct: also called Aβ-oligomers
Procedure: (§1) The generic amyloid beta binding antibody 6E10-biotin was immobilized on streptavidin Alphascreen®donor beads, while FLAG-tagged CBB-VNAR was immobilized on anti-FLAG Alphascreen®acceptor beads. These beads were incubated with different concentrations of amyloid beta 1-42 derived antigens (oligomers, monomers, fibrils, all prepared as described in example 1). In this format, a specific signal is generated when donor/6E10 and acceptor/CBB-VNAR beads simultaneously bind to different epitopes on the same molecule. […] Plates were then read using a Perkinelmer Enspire® plate reader using the 384 well factory preset measuring protocol. […] Stable Crossbeta oligomers (Perkin Elmer Amyloid Oligomers AlphaLISA High-Specificity Detection Kit (AL334F)) were also detected using an ELISA sandwich immunoassay format where the CBB-VNAR was immobilized to Nunc amino immobilizer plates (2 μg/ml coating, 1 hr rT) to serve as oligomer capture molecule. After incubation of the CBB-VNAR coated wells with different amounts of stable oligomer for 1 hour, wells were washed and bound oligomer was detected using sequential incubation with 6E10-biotin and streptavidin-HRP as described in example 1.

[5] = molecular target: T1, amyloid beta 1-42 oligomer; assay: Alphascreen proximity sandwich: 6E10-biotin on streptavidin donor beads, CBB-VNAR on anti-FLAG acceptor beads; the oligomer concentration is varied; Alphascreen bead sandwich with 6E10-biotin; oligomer in solution titrated; apparent EC50
Procedure: as §1

T1 sequence (P05067 672-713 limits assumed): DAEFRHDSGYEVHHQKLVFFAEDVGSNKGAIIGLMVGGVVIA
T2 sequence (P05067 672-713): as the sequence (P05067 672-713 limits assumed) above

EC50 [1]: 4 ng/mL
Trp emission intensity at saturation with oligomer, relative to the native protein [2]: ~70%
EC50 (read off the curve) [3]: ~8 µg/mL
EC50 [4]: 0.01 µg/mL
EC50 [5]: 0.1 µg/mL
B1: CBB-VNAR (FLAG-tagged) (VNAR)
VNAR: AWVDQTPRTATKETGESLTINCVLRDQNGWSRTGWYRTKLGSTNEQSISIGGRYVETVNKGSKSFSLRISDLRVEDSGTYKCQALLNPRREEFWFSRRYPVVKGAGTALTVKA
notes: Monomeric shark-type VNAR single domain (Mw 15 kDa); not shown: FLAG tag
